Measurements taken from patent publication US12091453B2, “Epitope specific to SMO protein, antibody recognizing same, and composition comprising same” (HEDGEHOG, INC., priority 2018, dated 2024).
Entries after “also recorded” stand apart in the source; their conditions may differ.

Assays:
Type in all cases: cell-based
[1] = system: SHH-induced GLI transcriptional activity; experiment: NIH3T3-GLI reporter assay, humanized SMO antibodies; conditions: NIH3T3-GLI cells, Sonic hedgehog peptide 15 h, 10 and 20 μg/ml antibody 6 h
Protocol: GLI Repoter-NIH3T3 cell line was purchased from BPS Bioscience (CA, USA).
After NIH3T3-GLI cells having GLI transcriptional activity were plated in a 96-well plate at a density of 1×10^4 cells/cm^2, 2% BCS was treated with Sonic hedgehog peptide. Following 15 h, the cells were treated with different concentrations (10 and 20 μg/ml) of each of humanized antibody Nos. 5 (Production Example 6), 7 (Production Example 7), 15 (Production Example 8), 16 (Production Example 9), and 17 (Production Example 10) for 6 h. GLI1 Reporter activity (%) was measured through luminescence using a Reporter assay kit (Promega, WI, USA). The above procedure was repeated except that the SMO small-molecule inhibitor vismodegib or erismodegib was used as a positive control instead of the inventive SMO antibody.

GLI1 = experiment: Western blotting of HCT116 cell line treated with humanized SMO antibodies; conditions: HCT116, 10 and 20 μg/ml, serum free media
Protocol: (§1) HCT116 cell line was purchased from the Korean Cell Line Bank. 24 h after cells were plated in a […] at a density of 5×10^5 cells/cm^2, they were treated with different concentrations (10 and 20 μg/ml) of each of humanized SMO antibody Nos. 5, 7, 15, 16, and 17 in serum free media.
(§2) Cells were disrupted by a combination of mechanical homogenization and sonication in a lysis buffer (7 M urea, 2 M thiourea, 4% CHAPS, 40 mM Tris, 100 mM DTT) supplemented with protease, followed by centrifugation at 15,000 rpm and 4° C. for 20 min. Proteins in the supernatant were quantified with NanoDrop by bicinchoninic acid (BCA) assay.
(§3) 30 μg of the proteins isolated from the collected tissues were subjected to electrophoresis, transferred to a PVDF membrane, labeled with anti-GLI1 antibody (cell signaling, MA, USA), anti-SMO antibody (Santa Cruz, CA, USA), and anti β-actin antibody as primary antibodies and an HRP-conjugated anti-rabbit antibody as a secondary antibody, and detected by chemiluminescence staining. The expression levels of SMO protein were measured by the enhanced chemiluminescence (ECL) method.

SMO = experiment: as above; conditions: HCT116, 10 and 20 μg/ml, serum free media
Protocol: as §1, §2, §3

HCT116 cell line = experiment: Transwell migration assay; conditions: HCT116, 10 μg/ml, 48 h
Protocol: After HCT116 cell line was plated in a transwell, each of humanized SMO antibody Nos. 7, 15, 16, and 17 was added at a concentration of 10 μg/ml. Following 48 h, cell motility was measured using a Diff-Quik kit.

B1: humanized SMO antibody No. 7: humanized SMO antibody, VH SEQ ID NO: 23 and VL SEQ ID NO: 28 (antibody, V domains shown)
VH: QVQLVQSGAEVKKPGASVKVSCKASGYTFTEYTMHWVRQAPGQRLEWMGGINPNTGDTRYNQKFKGRVTITVDKSASTAYMELSSLRSEDTAVYYCARDYYGSPFVYWGQGTLVTVSS
VL: DIVMTQSPLSLPVTPGEPASISCRSSQSIVHSSGYTFLDWYLQKPGQSPQLLIYKVSNRFSGVPDRFSGSGSGTDFTLKISRVEAEDVGVYYCFQGSHVPLTFGGGTKVEIK
modifications: huSM01-21-07 VH; huSM01-21-07 VL
transcriptional activity of GLI (GLI1 Reporter activity) [1]: significantly inhibited the transcriptional activity of GLI; also recorded: effectively inhibit the SHH-induced GLI transcriptional activity
expression level of GLI1 protein (GLI1): reduce the expression levels
expression level of SMO protein (SMO): reduce the expression levels
cell motility (HCT116 cell line): reduction in cell motility

B2: humanized SMO antibody No. 15: humanized SMO antibody, VH SEQ ID NO: 24 and VL SEQ ID NO: 29 (antibody, V domains shown)
VH: QVQLVQSGAEVKKPGASVKVSCKASGYTFTEYTMHWVRQAPGQRLEWMGGINPNTGDTRYNQKFKGRVTITVDKSASTAYMELSSLRSEDTAVYYCARDYYGSPFVYWGQGTLVTVSS
VL: DIQMTQSPSSLSASVGDRVTITCRSSQSIVHSSGYTFLDWYQQKPGKAPKLLIYKVSNRFSGVPSRFSGSGSGTDFTLTISSLQPEDFATYYCFQGSHVPLTFGQGTKVEIK
modifications: huSM01-21-15 VH; huSM01-21-15 VL
transcriptional activity of GLI (GLI1 Reporter activity) [1]: significantly inhibited the transcriptional activity of GLI; also recorded: effectively inhibit the SHH-induced GLI transcriptional activity
expression level of GLI1 protein (GLI1): reduce the expression levels
expression level of SMO protein (SMO): reduce the expression levels
cell motility (HCT116 cell line): reduction in cell motility

B3: humanized SMO antibody No. 16: humanized SMO antibody, VH SEQ ID NO: 25 and VL SEQ ID NO: 29 (antibody, V domains shown)
VH: QVQLVQSGAEVKKPGASVKVSCKASGYTFTEYTMHWVRQAPGQGLEWMGGINPNTGDTRYNQKFKGRVTMTVDKSTSTVYMELSSLRSEDTAVYYCARDYYGSPFVYWGQGTLVTVSS
VL: DIQMTQSPSSLSASVGDRVTITCRSSQSIVHSSGYTFLDWYQQKPGKAPKLLIYKVSNRFSGVPSRFSGSGSGTDFTLTISSLQPEDFATYYCFQGSHVPLTFGQGTKVEIK
modifications: huSM01-21-16 VH; huSM01-21-15 VL
transcriptional activity of GLI (GLI1 Reporter activity) [1]: significantly inhibited the transcriptional activity of GLI; also recorded: effectively inhibit the SHH-induced GLI transcriptional activity
expression level of GLI1 protein (GLI1): reduce the expression levels
expression level of SMO protein (SMO): reduce the expression levels
cell motility (HCT116 cell line): reduction in cell motility; also recorded: highest activities to reduce cell mobility
cell motility compared to treatment with vismodegib or erismodegib (positive control) (HCT116 cell line): significantly inhibited cell motility

B4: humanized SMO antibody No. 17: humanized SMO antibody, VH SEQ ID NO: 26 and VL SEQ ID NO: 29 (antibody, V domains shown)
VH: EVQLVQSGAEVKKPGATVKISCKVSGYTFTEYTMHWVQQAPGKGLEWMGGINPNTGDTRYNQKFKGRVTITVDKSTDTAYMELSSLRSEDTAVYYCARDYYGSPFVYWGQGTLVTVSS
VL: DIQMTQSPSSLSASVGDRVTITCRSSQSIVHSSGYTFLDWYQQKPGKAPKLLIYKVSNRFSGVPSRFSGSGSGTDFTLTISSLQPEDFATYYCFQGSHVPLTFGQGTKVEIK
modifications: huSM01-21-17 VH; huSM01-21-15 VL
transcriptional activity of GLI (GLI1 Reporter activity) [1]: significantly inhibited the transcriptional activity of GLI; also recorded: effectively inhibit the SHH-induced GLI transcriptional activity
expression level of GLI1 protein (GLI1): reduce the expression levels
expression level of SMO protein (SMO): reduce the expression levels
cell motility (HCT116 cell line): reduction in cell motility; also recorded: highest activities to reduce cell mobility
cell motility compared to treatment with vismodegib or erismodegib (positive control) (HCT116 cell line): significantly inhibited cell motility
